Target: T1, Flag-RNF185 (wild type, full length human RNF185 with N-terminal Flag tag) (human, UniProt Q96GF1 2-192)
T1 construct: Expressed by transfection in HEK293T cells; co-immunoprecipitation from lysates; For the CFTR co-IP, cells expressing WT RNF185 were treated with MG132 for 5 hours; also called RNF185 WT; Flag-tagged RNF185
T1 sequence: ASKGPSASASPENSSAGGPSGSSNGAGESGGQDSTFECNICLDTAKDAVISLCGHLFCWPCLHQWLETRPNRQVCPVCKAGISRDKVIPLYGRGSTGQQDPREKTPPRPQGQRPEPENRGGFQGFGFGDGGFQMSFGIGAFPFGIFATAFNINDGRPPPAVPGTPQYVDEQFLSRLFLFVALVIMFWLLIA
Assay: Flag co-immunoprecipitation from HEK293T cell lysates

B1: Ubc7/UBE2G1 (enzyme, UniProt P62253 1-170, looked up)
chain: MTELQSALLLRRQLAELNKNPVEGFSAGLIDDNDLYRWEVLIIGPPDTLYEGGVFKAHLTFPKDYPLRPPKMKFITEIWHPNVDKNGDVCISILHEPGEDKYGYEKPEERWLPIHTVETIMISVISMLADPNGDSPANVDAAKEWREDRNGEFKRKVARCVRKSQETAFE
notes: the construct is not described
binding result: no binding
